40 sequences from the nanobody polyreactivity screen of Harvey et al. (2022) can be followed below.

The nature of the data set: yeast display, Sf9 membrane polyspecificity reagent, FACS + sequencing; frameworks hold sequencing errors. The essentials: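 Galactose induction of a Saccharomyces cerevisiae BJ5465 synthetic nanobody display library ran 36–48 hours. The cells were then stained for 1 hour at 4 °C with 10% biotinylated, detergent-solubilized Sf9 membrane reagent, pulled down on streptavidin microbeads and FACS-sorted into low and high (top ~1%) gates on expression and reagent-binding fluorescence. Labels for polyreactivity follow the gate of origin.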
In the case of “QVQLVESGGGLVQAGGSLRLSCAASGFTFYGNAMGWYRQAPGKERELVAAISSSGGITYYADSVKGRFTISRDNAKNTVYLQMNSLKPEDTAVYYCAAVQGTPDYEYDSWGQGTQVTVSS”, the “polyreactivity (PSR sort gate)” value is given as “low polyreactivity”. For “QVQLVESGGGLVQAGGSLRLSCAASGFTFYGNAMGWYRQAPGKERELVSAISYNGGSTYYADSVKGRFTISRDNAKNTVYLQMNSLKPEDTAVYYCAAGYYWQYTSSSAQYAYDYWGQGTQVTVSS”, the “polyreactivity (PSR sort gate)” value is given as “low polyreactivity”. Take “QVQLVESGGGLVQAGGSLRLSCAASGFTFYGNSMGWYRQATGKERELVAAITSGGSTYYADSVKGRFTISRDNAKNNVYLQMNSLKPEDTAVYYCAAVNGWRRVKRFDYWGQGTQVTVSS”: the “polyreactivity (PSR sort gate)” value was “high polyreactivity”. Regarding “QVQLVESGGGLVQAGGSLRLSCAASGFTFYGYAMGWYIQAPGKERELVAAITGSGARTYYADSVKGRFTISRDNAKNTVYLQMNSLKPEDTAVYYCNKVGVTRVGYTYRVREYDYWGQGTQVTVSS”, the “polyreactivity (PSR sort gate)” value is “high polyreactivity”. With “QVQLVESGGGLVQAGGSLRLSCAASGFTFYGYAMGWYRQAPGKERELVAAISSSGGRTYYADSVKGRFTISRDNAKNTVYLQMNSLKPEDTAVYYCAGDYTSRDYYYWGQGTQVTVSS” the entry was “high polyreactivity”; with “QVQLVESGGGLVQAGGSLRLSCAASGFTFYGYAMGWYRQAPGKERELVAAISTRGSRTYYADSVKGRFTISRDNSKNTVYLQMNSLKPEDTAVYYCAARKKHSGYGRGNYWGQGTQVTVSS”, “high polyreactivity”; with “QVQLVESGGGLVQAGGSLRLSCAASGFTFYGYAMGWYRQAPGKERELVAGITSSGGSTHYADSVKGRFTISRDNAKNTVYLQMNSLKPEDTAVYYCAKVWSFPSNYRAYYYWGQGTQVTVSS”, “high polyreactivity”. For “QVQLVESGGGLVQAGGSLRLSCAASGFTFYGYAMGWYRQAPGKERELVATIRRSTGSTYYADSVKGRFTISRDNAKNTVYLQMNSLKPEDTAVYYCATRVWFPITSYDYWGQGTQVTVSS”, the “polyreactivity (PSR sort gate)” value was “low polyreactivity”.

For the sequence “QVQLVESGGGLVQAGGSLRLSCAASGFTFYGYTMGWYRQAPGKEREVVAAITSDGDTNYADSVKGRFTISRDNAKNNVYLQMNSLIPEDTAVYYCNADPGFFFYWWTGDYWGQGTQVTVSS”, the “polyreactivity (PSR sort gate)” value was “low polyreactivity”. “QVQLVESGGGLVQAGGSLRLSCAASGFTFYHYAMGWYRQAPGKERELVAAISRSGGSTYYADSVKGRFTISRDNAKNTVYLQMNSLKPEDTAVYYCSKVLRAKNSFDYWGQGTQVTVSS”: the “polyreactivity (PSR sort gate)” value was “high polyreactivity”. Consider “QVQLVESGGGLVQAGGSLRLSCAASGFTFYINAMGWYRQAPGKEREFVAAITSRGGSTYYADSVKGRFTISRDNAKNTVYLQMNSLKPEDTAVYYCAARNFLSRRGTYDYWGQGTQVTVSS”, for which the “polyreactivity (PSR sort gate)” value is recorded as “high polyreactivity”. As for “QVQLVESGGGLVQAGGSLRLSCAASGFTFYINVMGWYRQATGKERELVAAITSSGTTNYADSVKGRFTISRDNAKNTVYLQMNSLKPEDTAVYYCAKRSYGGTLHYAFDSWGQGTQVTVSS”, the “polyreactivity (PSR sort gate)” value was “low polyreactivity”. Regarding “QVQLVESGGGLVQAGGSLRLSCAASGFTFYIYAMGWDRQAPGKERELVAAIRASGGSTYYADSVKGRFTISRDSAKNTVYFLMNSLNPDDTAVYYCAADYKVYASWYYAYTFYYWGQGTQVTVSS”, the “polyreactivity (PSR sort gate)” value is recorded as “low polyreactivity”. With “QVQLVESGGGLVQAGGSLRLSCAASGFTFYIYAMGWSRQAPGKERELVAAISSSGGSTYYADSVKGRFTISRDNAKNTVYLQMNSLNPEDTAVYYWNVVRYPVYRTRYYYWGQGTQVTVSS”, the “polyreactivity (PSR sort gate)” value was “high polyreactivity”. On to “QVQLVESGGGLVQAGGSLRLSCAASGFTFYKNAMGWYRQAPGKERELVASISSGGSTKYADSVKGRFTISRDNAKNTVYLQMNSLKPEDTAVYYCAADSGRNRMYYWGQGTQVTVSS”, for which the “polyreactivity (PSR sort gate)” value was “high polyreactivity”.

As for “QVQLVESGGGLVQAGGSLRLSCAASGFTFYKNTMGWYRQAPGKERELVAAISGSGGRTYYADSVKGRFTISRDNAKNTVYLQMTSLKPEDTAVYYCNAAARYRWQYVYSLYEYGHWGQGTQVTVSS”, the “polyreactivity (PSR sort gate)” value is “high polyreactivity”. For “QVQLVESGGGLVQAGGSLRLSCAASGFTFYKYAIGWYRQAPGKERELVAGIRRGGTNYADSVKGRFTISRDNAKNTVFLQMNSLKPEDTAVYYCAADVRPYYSAYRGRYYYWGQGTQVTVSS”, the “polyreactivity (PSR sort gate)” value is “high polyreactivity”. Turning to “QVQLVESGGGLVQAGGSLRLSCAASGFTFYLNAMGWYRQAPGKERELVAAISYSDGSPYYADSVKGRFTISRDNAKNTVYLQRNSLKPEDTAVYYCAADTTDPGGAYQLMDYWRQGTQVTVSS”, the “polyreactivity (PSR sort gate)” value is on record as “low polyreactivity”. With “QVQLVESGGGLVQAGGSLRLSCAASGFTFYLYAMGWYRQAPGKERELVAAISSGGSTNYADSVKGRFTISRDNAKNTVYLQMNSLKPEDTAVYYCNKRYRRATWWITAYDHWGQGTQVTVSS”, the “polyreactivity (PSR sort gate)” value was “high polyreactivity”. Consider “QVQLVESGGGLVQAGGSLRLSCAASGFTFYLYTMAWYRQAPGKERELVATITSDGGTNYADSVKGRFTISRDNAKNTVYLQMNSLKPEDTAVYYCARTARRRYQPYEYWGQGTQVTVSS”, for which the “polyreactivity (PSR sort gate)” value is “low polyreactivity”. In the case of “QVQLVESGGGLVQAGGSLRLSCAASGFTFYLYTMGWYRQAPGKERELVASLTGSGGSTYYADSVKGRFTISRDNAKNTVYLQMHSLKPEDTAVYYCNARYYVYSATVDRYYHFYYWGQGTQVTVSS” it was “high polyreactivity”. For the sequence “QVQLVESGGGLVQAGGSLRLSCAASGFTFYNYAMGWYRQAPGKERELVAAITSRGGSTYYADSVKGRFTISRDYAKNTVYLQMNSLKPEDTAVYYCNAVAKLYYWRYDYWGQGTQVTVSS”, the “polyreactivity (PSR sort gate)” value is reported as “low polyreactivity”.

Turning to “QVQLVESGGGLVQAGGSLRLSCAASGFTFYNYAMGWYRQAPGKERELVAVISRSGGRTKYADSVKGRFTISRDNAKNTVYLQMNSLKPEDTAVYYCAARPSPGYYAYRYAPAIHYDYWGQGTQVTVSS”, the “polyreactivity (PSR sort gate)” value was “high polyreactivity”. In the case of “QVQLVESGGGLVQAGGSLRLSCAASGFTFYPNAMGWYRQAPGKEWELVAAISRSGSSTYYADSVKGRFTISRDNAKNTVYLQMNSVKPEDTAVYDCNRYGRQYDFYYWGQGTQVTVSS”, the “polyreactivity (PSR sort gate)” value is “high polyreactivity”.

As to “QVQLVESGGGLVQAGGSLRLSCAASGFTFYPYAMGWYRQAPGKERELVAIRSDGSTYYADSVKGRFTISRDNAKNTVYLQMNCLKPEDTAVYYCNTEPSRDSYSLYFQTRGDYWGQGTQVTVSS”, the “polyreactivity (PSR sort gate)” value was “low polyreactivity”.

“QVQLVESGGGLVQAGGSLRLSCAASGFTFYPYSMGWYRQAPGKERELVAAITRGGSTYYADSVKGRFTISRDNAKNTVFLQMNSLKPEDTAVYYCNAYWQGYGYYYWGQGTQVTVSS”: the “polyreactivity (PSR sort gate)” value was “low polyreactivity”. In the case of “QVQLVESGGGLVQAGGSLRLSCAASGFTFYPYTMGWYRQAPGKEREFVAAISWNCGSTYYADSVKGRFTISCDNAKNTVYLQMNSLKPEDTAVYYCAKRSYRSSARELDYWGQGTQVTVSS” it was “low polyreactivity”. Regarding “QVQLVESGGGLVQAGGSLRLSCAASGFTFYQYGMGWYRQAPGKERELVATITSGGRTNYADSVKGRFTISRDNAKNTVYLQMNSLKPEDTAVYYCNKLPYYPRFGRIGRYYYWGQGTQVTVSS”, the “polyreactivity (PSR sort gate)” value is given as “high polyreactivity”. Take “QVQLVESGGGLVQAGGSLRLSCAASGFTFYRNAMGWYRQAPGKERELVAAITLSGTSTYYADSVMGRFTISRDNAKNTVYLQMISLIPEDTAVYYWNTVGYRGPSNSRFYYWGQGTQVTLSS”: the “polyreactivity (PSR sort gate)” value is given as “high polyreactivity”. Consider “QVQLVESGGGLVQAGGSLRLSCAASGFTFYRNAMGWYRQAPGKEREMVAAITWSGTSTYYADSVKGRFTISRDNAKNTVYFQMNSLKPEDTAVYFCNTVGYRGRSNSRFYYWGQGTQVTVSS”, for which the “polyreactivity (PSR sort gate)” value is listed as “high polyreactivity”.

For “QVQLVESGGGLVQAGGSLRLSCAASGFTFYRNAMGWYRQAPWKERELVATITRSGGSKYYADSVKGRFTISRDNAKNTVYLQMNSLKPEDTEVYYCNDAISGVLVHGNYWGQGTQVTVSS”, the “polyreactivity (PSR sort gate)” value is on record as “low polyreactivity”. “QVQLVESGGGLVQAGGSLRLSCAASGFTFYRNAMRWYRQAPGKERELVAAISRGGRTYYADSVKGRFTISRDNAKNTVYLQMNSLKPEDTAVYYCARKYTRKIPASDYWGQGTQVTVSS”: the “polyreactivity (PSR sort gate)” value is “high polyreactivity”.

With “QVQLVESGGGLVQAGGSLRLSCAASGFTFYRNDMGWYRQAPGKEREFVAAITTSGGSTYYADSVKGRFTISRDNAKYTVYLQMNSLKPEDTAVYYCNAYGDGYWKTFGYWGQGTQVTVSS”, the “polyreactivity (PSR sort gate)” value is “high polyreactivity”.

As to “QVQLVESGGGLVQAGGSLRLSCAASGFTFYRYAMGSYRQAPGKERELFAAIRKSGGSTYYADSVKGRFTISRDNAKNTVYLLMNSMKAEDTAVYYCAKRYATDGFGYWGQGTQVTVSS”, the “polyreactivity (PSR sort gate)” value was “high polyreactivity”. With “QVQLVESGGGLVQAGGSLRLSCAASGFTFYRYAMGWYRPAPGKERELVAAISSTGDRTYYADSVKGRFTISRDNAKNTVYLQMNSLKPEDTAVYYCAAPYQNQVEFNYWGQGTQVTVSS” the entry was “high polyreactivity”; with “QVQLVESGGGLVQAGGSLRLSCAASGFTFYRYAMGWYRPAPGKERELVAAITRSGSRTYYADSVKGRFTISRDNAKNTVYLQMNSLKPEDTAVYYCNTDGGDHPTARYGYWGQGTQVTVSS”, “high polyreactivity”. As for “QVQLVESGGGLVQAGGSLRLSCAASGFTFYRYAMGWYRQAPGKERELVAAISRTGGSTYYADSVKGRFTISRDNAKNTVYLQMNSLKPEDTAVYYCAAERKARTSWYGAASRYYYWGQGTQVTVSS”, the “polyreactivity (PSR sort gate)” value is reported as “high polyreactivity”. Regarding “QVQLVESGGGLVQAGGSLRLSCAASGFTFYRYTMGWYRQAPGKERELVAAITNTDSTNYADSVKGRFTISRDNAKNTVYLQMNSLKPEDTAVYYCNAAYVWYRIFVRRDYWGQGTQVTVSS”, the “polyreactivity (PSR sort gate)” value is recorded as “high polyreactivity”. Regarding “QVQLVESGGGLVQAGGSLRLSCAASGFTFYSNAMGWYRQAPGKERELGAAITWSTGNTYYADSVKGRFTISRDNAKNTVYLQMNSLKPEDTAVYYCAARSHTGYYPPSYYWGQATQVTVSS”, the “polyreactivity (PSR sort gate)” value was “high polyreactivity”. In the case of “QVQLVESGGGLVQAGGSLRLSCAASGFTFYTNAMGLSRQAPGKERELVAAISQRGASTYYADSVKGRFTISRDNAKNTFYLEMTSLKPEDTAVYYCAASSRTHGSYYYWGQGTQVTVSS”, the “polyreactivity (PSR sort gate)” value is listed as “high polyreactivity”.
